Reference: US20220119553A1 (Sanofi, published 2022)

T1: human CD19 (ELISA antigen) (human, UniProt P15391 20-291, limits assumed)
T1 sequence (looked up): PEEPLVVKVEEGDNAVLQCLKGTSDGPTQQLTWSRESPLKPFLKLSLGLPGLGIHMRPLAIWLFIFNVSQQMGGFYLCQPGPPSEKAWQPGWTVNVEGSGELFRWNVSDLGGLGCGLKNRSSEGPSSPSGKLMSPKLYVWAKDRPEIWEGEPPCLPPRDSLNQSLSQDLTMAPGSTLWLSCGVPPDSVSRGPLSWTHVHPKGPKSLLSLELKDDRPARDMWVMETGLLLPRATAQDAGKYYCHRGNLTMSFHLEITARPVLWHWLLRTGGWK

T2: recombinant human IL4 (human, UniProt P05112 25-153)
T2 construct: Bought; also called interleukin 4
T2 sequence (looked up): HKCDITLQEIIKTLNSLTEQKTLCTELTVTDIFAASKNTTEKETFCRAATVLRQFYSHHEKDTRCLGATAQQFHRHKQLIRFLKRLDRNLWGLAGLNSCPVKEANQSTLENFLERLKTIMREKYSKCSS

B1: Binding Protein 3 (other)
heavy 1: QVQLVQSGAEVKKPGSSVKVSCKASGYAFSSYWMNWVRQAPGQGLEWIGQIWPGDGDTNYNQKFKGRATLTADESTSTAYMELSSLRSEDTAVYYCARRETTTVGRYYYAMDYWGQGTTVTVSSASTKGPSVFPLAPCSRSTSESTAALGCLVKDYFPEPVTVSWNSGALTSGVHTFPAVLQSSGLYSLSSVVTVPSSSLGTKTYTCNVDHKPSNTKVDKRVESKYGPPCPPCPAPEFLGGPSVFLFPPKPKDTLMISRTPEVTCVVVDVSQEDPEVQFNWYVDGVEVHNAKTKPREEQFNSTYRVVSVLTVLHQDWLNGKEYKCKVSNKGLPSSIEKTISKAKGQPREPQVYTLPPCQEEMTKNQVSLWCLVKGFYPSDIAVEWESNGQPENNYKTTPPVLDSDGSFFLYSKLTVDKSRWQEGNVFSCSVMHEALHNHYTQKSLSLSLGK
light 1: DLVLTQSPASLAVSPGQRATITCKASQSVDYDGDSYLNWYQQKPGQPPKLLIYDASNLVSGVPARFSGSGSGTDFTLTINPVEANDTANYYCQQSTEDPWTFGQGTKLEIKRTVAAPSVFIFPPSDEQLKSGTASVVCLLNNFYPREAKVQWKVDNALQSGNSQESVTEQDSKDSTYSLSSTLTLSKADYEKHKVYACEVTHQGLSSPVTKSFNRGEC
heavy 2: QVQLVQSGAEVVKPGASVKVSCKASGYTFTSYYIHWVRQAPGQGLEWIGSIYPGNVNTNYAQKFQGRATLTVDTSISTAYMELSRLRSDDTAVYYCTRSHYGLDWNFDVWGKGTTVTVSSSQVQLVESGGGVVQPGRSLRLSCAASGFTFTKAWMHWVRQAPGKQLEWVAQIKDKSNSYATYYADSVKGRFTISRDDSKNTLYLQMNSLRAEDTAVYYCRGVYYALSPFDYWGQGTLVTVSSRTASTKGPSVFPLAPCSRSTSESTAALGCLVKDYFPEPVTVSWNSGALTSGVHTFPAVLQSSGLYSLSSVVTVPSSSLGTKTYTCNVDHKPSNTKVDKRVESKYGPPCPPCPAPEFLGGPSVFLFPPKPKDTLMISRTPEVTCVVVDVSQEDPEVQFNWYVDGVEVHNAKTKPREEQFNSTYRVVSVLTVLHQDWLNGKEYKCKVSNKGLPSSIEKTISKAKGQPREPQVCTLPPSQEEMTKNQVSLSCAVKGFYPSDIAVEWESNGQPENNYKTTPPVLDSDGSFFLVSKLTVDKSRWQEGNVFSCSVMHEALHNHYTQKSLSLSLGK
light 2: DIVMTQTPLSLSVTPGQPASISCKSSQSLVHNNANTYLSWYLQKPGQSPQSLIYKVSNRFSGVPDRFSGSGSGTDFTLKISRVEAEDVGVYYCGQGTQYPFTFGSGTKVEIKGQPKAAPDIQMTQSPSSLSASVGDRVTITCQASQNIYVWLNWYQQKPGKAPKLLIYKASNLHTGVPSRFSGSGSGTDFTLTISSLQPEDIATYYCQQGQTYPYTFGQGTKLEIKTKGPSRTVAAPSVFIFPPSDEQLKSGTASVVCLLNNFYPREAKVQWKVDNALQSGNSQESVTEQDSKDSTYSLSSTLTLSKADYEKHKVYACEVTHQGLSSPVTKSFNRGEC
notes: Trispecific antibody of four chains, IgG4: anti-CD19 Fab arm (knob) and CODV arm anti-CD28 x anti-CD3 (hole); also called anti-CD19×CD28×CD3 IgG4 trispecific antibody; CD19 × (CD28 × CD3)
B2: Binding Protein 5 (other)
heavy 1: QVQLVQSGAEVAKPGTSVKLSCKASGYTFTDYWMQWVKQRPGQGLEWIGTIYPGDGDTGYAQKFQGKATLTADKSSKTVYMHLSSLASEDSAVYYCARGDYYGSNSLDYWGQGTSVTVSSASTKGPSVFPLAPCSRSTSESTAALGCLVKDYFPEPVTVSWNSGALTSGVHTFPAVLQSSGLYSLSSVVTVPSSSLGTKTYTCNVDHKPSNTKVDKRVESKYGPPCPPCPAPEFLGGPSVFLFPPKPKDTLMISRTPEVTCVVVDVSQEDPEVQFNWYVDGVEVHNAKTKPREEQFNSTYRVVSVLTVLHQDWLNGKEYKCKVSNKGLPSSIEKTISKAKGQPREPQVYTLPPCQEEMTKNQVSLWCLVKGFYPSDIAVEWESNGQPENNYKTTPPVLDSDGSFFLYSKLTVDKSRWQEGNVFSCSVMHEALHNHYTQKSLSLSLGK
light 1: DIVMTQSHLSMSTSLGDPVSITCKASQDVSTVVAWYQQKPGQSPRRLIYSASYRYIGVPDRFTGSGAGTDFTFTISSVQAEDLAVYYCQQHYSPPYTFGGGTKLEIKRTVAAPSVFIFPPSDEQLKSGTASVVCLLNNFYPREAKVQWKVDNALQSGNSQESVTEQDSKDSTYSLSSTLTLSKADYEKHKVYACEVTHQGLSSPVTKSFNRGEC
heavy 2: B1 heavy 2
light 2: B1 light 2
B3: Binding Protein 16 (bispecific antibody, human IgG1, kappa, lambda)
heavy 1: not shown
light 1: DIVLTQSPASLAVSLGQRATISCRASESVDSYGQSYMHWYQQKAGQPPKLLIYLASNLESGVPARFSGSGSRTDFTLTIDPVQAEDAATYYCQQNAEDSRTFGGGTKLEIKGQPKAAPSVTLFPPSSEELQANKATLVCLISDFYPGAVTVAWKADSSPVKAGVETTTPSKQSNNKYAASSYLSLTPEQWKSHRSYSCQVTHEGSTVEKTVAPTECS
heavy 2: not shown
light 2: not shown
notes: Bispecific trivalent (CODV-Fab) × Fab-IgG1 Fc; two IL13 sites, one IL4 site; also called IL13 × (IL13 × IL4); (anti-IL13 × anti-IL4) × anti-IL13
B4: Binding Protein 18 (bispecific antibody, human IgG1, kappa, lambda)
heavy 1: not shown
light 1: B3 light 1
heavy 2: not shown
light 2: not shown
notes: Bispecific trivalent (CODV-Fab) × Fab-IgG1 Fc; two IL13 sites, one IL4 site; also called IL13 × (IL4 × IL13); (anti-IL4 × anti-IL13) × anti-IL13
B5: Binding Protein 17 (bispecific antibody, human IgG1, kappa, lambda)
heavy 1: not shown
light 1: DIQMTQSPASLSVSVGDTITLTCHASQNIDVWLSWFQQKPGNIPKLLIYKASNLHTGVPSRFSGSGSGTGFTLTISSLQPEDIATYYCQQAHSYPFTFGGGTKLEIKGQPKAAPSVTLFPPSSEELQANKATLVCLISDFYPGAVTVAWKADSSPVKAGVETTTPSKQSNNKYAASSYLSLTPEQWKSHRSYSCQVTHEGSTVEKTVAPTECS
heavy 2: not shown
light 2: not shown
notes: Bispecific trivalent (CODV-Fab) × Fab-IgG1 Fc; two IL4 sites, one IL13 site; also called IL4 × (IL13 × IL4); (anti-IL13 × anti-IL4) × anti-IL4
B6: Binding Protein 19 (bispecific antibody, human IgG1, kappa, lambda)
heavy 1: not shown
light 1: B5 light 1
heavy 2: not shown
light 2: not shown
notes: Bispecific trivalent (CODV-Fab) × Fab-IgG1 Fc; two IL4 sites, one IL13 site; also called IL4 × (IL4 × IL13); (anti-IL4 × anti-IL13) × anti-IL4

These binders were tested against T1, human CD19 (ELISA antigen) (assay: ELISA on coated antigen, detection with HRP-conjugated anti-Fab secondary antibody, OD450).
Experimental: The coated plate was blocked using 5% skim milk+2% BSA in PBS for one hour at RT, followed by washing with PBS+0.25% Tween 20 three times (Aqua Max 400, Molecular Devices). Serial dilution of antibodies (trispecific and control Abs) were prepared and added onto the ELISA plates (100 μl/well in duplicate), incubated at RT for one hour, followed by washing 5 times with PBS+0.25% Tween 20.
The reaction was terminated by adding 50 μl 1M H₂SO₄, and OD₄₅₀ was measured using SpectraMax M5 (Molecular Devices) and analyzed using SoftMax Pro6.3 software (Molecular Devices). […] EC50 was calculated using the same software.

Row | binding result | Binder
1 | binds | B1

These binders were tested against CD38 on human multiple myeloma cells (human, UniProt P28907 1-300) (assay: cell-based or functional assay).

Row | Binder | EC50 (pM), antibody-mediated cell killing of RPMI8226 cells [pM]
2 | B2 | 0.379

What follows are binders tested against T2, recombinant human IL4 (assay: SPR (BIACORE 3000), antibody captured, human IL4 as analyte).

Row | Kd [pM] | No. of ILs Bound | kDa Bound [kDa] | koff [s⁻¹] | kon [M⁻¹ s⁻¹] | Binder
3 | 5.88 | 1 | 17 | 0.00028 | 4.77e+07 | B3
4 | 10.2 | 1 | 18 | 0.000359 | 3.52e+07 | B4
5 | 2.4 | 2 | 35 | 0.00076 | 3.16e+08 | B5
6 | 4.65 | 2 | 34 | 0.000385 | 8.27e+07 | B6

What follows are binders tested against T2, recombinant human IL4 (assay: cell-based or functional assay).

Row | IL4 IC50 (HEK Blue reporter assay) [ng/mL] | Binder
7 | 13 | B3
8 | 14.6 | B4
9 | 8.62 | B5
10 | 5.73 | B6
